These results are taken from patent US20250188434A1 (VERRA THERAPEUTICS, published 2025).

The labels stand for the following.
B1: wild type human ADAM9 prodomain peptide (SEQ ID NO: 2) (peptide)
chain: ARPGFQQTSHLSSYEIITPWRLTRERREAPRPYSKQVSYVIQAEGKEHIIHLERNKDLLPEDFVVYTYNKEGTLITDHPNIQNHCHYRGYVEGVHNSSIALSDCFGLRGLLHLENASYGIEPLQNSSHFEHIIYRMDDVYKEPLKCGVSNKDIEKETAKDEEEEPPSMTQLLRR
B2: modified ADAM9 prodomain peptide SEQ ID NO: 10 (peptide)
chain: B1 chain with R26A, C85S, C104S, C146S
B3: Chemically modified SEQ ID NO: 2 (wild type ADAM9 prodomain labelled with ALEXA FLUOR 647 maleimide ester) (peptide)
chain: B1 chain
modifications: ALEXA FLUOR 647 brand maleimide ester on its three cysteines (85, 104 and 146 of SEQ ID NO: 2)
B4: pegylated SEQ ID NO: 21 (peptide)
chain: B1 chain with R27A, C85S, C104S
modifications: pegylated at cysteine 146 (PEG size not stated for this construct)
B5: modified ADAM9 prodomain peptide SEQ ID NO: 19 (peptide)
chain: B1 chain with R27A, C85S, C104S, C146S, E161N, E163N
B6: modified ADAM9 prodomain peptide SEQ ID NO: 14 (peptide)
chain: B1 chain with R26A, D62A, C85S, C104S, C146S
B7: modified ADAM9 prodomain peptide SEQ ID NO: 12 (peptide)
chain: B1 chain with R27A, C85S, C104S, C146S
B8: modified ADAM9 prodomain peptide SEQ ID NO: 16 (peptide)
chain: B1 chain with R27S, C85S, C104S, C146S
B9: modified ADAM9 prodomain peptide SEQ ID NO: 11 (peptide)
chain: B1 chain with R24A, C85S, C104S, C146S
B10: modified ADAM9 prodomain peptide SEQ ID NO: 18 (peptide)
chain: B1 chain with R27A, C85S, C104S, D138S, C146S
B11: modified ADAM9 prodomain peptide SEQ ID NO: 13 (peptide)
chain: B1 chain with C85S, C104S, C146S
B12: pegylated SEQ ID NO: 22 (peptide)
chain: GSCGSARPGFQQTSHLSSYEIITPWRLTRERAEAPRPYSKQVSYVIQAEGKEHIIHLERNKDLLPEDFVVYTYNKEGTLITDHPNIQNHSHYRGYVEGVHNSSIALSDSFGLRGLLHLENASYGIEPLQNSSHFEHIIYRMDDVYKEPLKSGVSNKDIEKETAKDEEEEPPSMTQLLRR
modifications: pegylated at the N-terminus, on the cysteine of the added N-terminal pentapeptide (PEG size not stated for this construct)
B13: modified ADAM9 prodomain peptide SEQ ID NO: 17 (peptide)
chain: QTSHLSSYEIITPWRLTRERAEAPRPYSKQVSYVIQAEGKEHIIHLERNKDLLPEDFVVYTYNKEGTLITDHPNIQNHSHYRGYVEGVHNSSIALSDSFGLRGLLHLENASYGIEPLQNSSHFEHIIYRMDDVYKEPLKSGVSNKDIEKETAKDEEEEPPSMTQLLRR
B14: pegylated SEQ ID NO: 20 (peptide)
chain: ARPGFQQTSHLSSYEIITPWRLTREAREAPRPYSKQVSYVIQAEGKEHIIHLERNKDLLPEDFVVYTYNKEGTLITDHPNIQNHSHYRGYVEGVHNSSIALSDSFGLRGLLHLENASYGIEPLQNSSHFEHIIYRMDDVYKEPLKSGVSNKDIEKETAKDEEEEPPSMTQLLRRGSGSC
modifications: 20 kDa maleimide PEG on the cysteine of the pentapeptide added to the C-terminus
B15: pegylated SEQ ID NO: 23 (peptide)
chain: B14 chain with A26R, R27A
modifications: pegylated at the C-terminus, on the cysteine of the added C-terminal pentapeptide (PEG size not stated for this construct)
B16: 25-1 (SEQ ID NO: 21), as labelled in Table 5 (peptide)
chain: B1 chain with R27A, C85S, C104S
B17: 25-2 (SEQ ID NO: 22), as labelled in Table 5 (peptide)
chain: B12 chain
B18: 25-3 (SEQ ID NO: 23), as labelled in Table 5 (peptide)
chain: B14 chain with A26R, R27A

Positions count from the first letter of the chain named.

One assay has as its target T1, ADAM9 (human or mouse ADAM9, enzyme of the in vitro inhibition assay) (human or mouse, UniProt Q13443 206-697, limits assumed).
T1 sequence (looked up): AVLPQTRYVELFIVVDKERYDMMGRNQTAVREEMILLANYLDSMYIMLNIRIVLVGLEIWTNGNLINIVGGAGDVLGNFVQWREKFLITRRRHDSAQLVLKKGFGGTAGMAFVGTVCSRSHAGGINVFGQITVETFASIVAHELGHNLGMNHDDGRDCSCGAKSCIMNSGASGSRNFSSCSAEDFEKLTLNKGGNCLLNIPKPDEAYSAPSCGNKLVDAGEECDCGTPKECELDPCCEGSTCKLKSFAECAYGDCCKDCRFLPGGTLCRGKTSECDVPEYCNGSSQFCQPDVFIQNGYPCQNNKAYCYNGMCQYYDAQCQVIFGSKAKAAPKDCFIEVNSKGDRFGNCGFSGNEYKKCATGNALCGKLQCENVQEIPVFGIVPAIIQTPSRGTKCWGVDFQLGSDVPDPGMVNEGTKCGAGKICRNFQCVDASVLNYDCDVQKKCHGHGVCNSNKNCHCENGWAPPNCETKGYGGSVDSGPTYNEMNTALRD
The experiment in a line: cell-based or functional assay.
Consider B1, for which the “IC50, inhibition of ADAM9 activity; wild type prodomain assayed 1 week after dialysis, when dimer formation had occurred” value is 120 nM.

The next assay addresses T1, ADAM9 (human or mouse ADAM9, enzyme of …). In words: cell-based or functional assay. This is another data set of the same source.
For B1, the “IC50, inhibition of ADAM9 activity on FRET substrate PEPDAB064; prodomain from inclusion bodies” value is 20 nM.

Consider B2, for which the “IC50, inhibition of ADAM9 activity on FRET substrate PEPDAB064; prodomain from soluble fraction” value (from here on “IC50, inhibition … from soluble fraction”) turned out to be 49 nM and the “IC50, inhibition of ADAM9 activity on FRET substrate PEPDAB064; prodomain refolded from inclusion bodies (aggregating)” value is above 200 nM.

As to B3, the “IC50, inhibition of ADAM9 activity on FRET substrate PEPDAB064; prodomain from inclusion bodies” value came to 125 nM.

For the molecule B4, the “IC50, inhibition of ADAM9 activity on FRET substrate PEPDAB064; prodomain from inclusion bodies” value came out at 40.5 nM.

In the case of B5, the “IC50, inhibition of ADAM9 activity on FRET substrate PEPDAB064; prodomain from inclusion bodies” value stood at 33 nM.

Consider B6, for which the “IC50, inhibition of ADAM9 activity on FRET substrate PEPDAB064; prodomain from inclusion bodies” value was 136 nM.

Consider B7, for which the “IC50, inhibition of ADAM9 activity on FRET substrate PEPDAB064; prodomain from inclusion bodies” value came out at 41 nM and the “IC50, inhibition … from soluble fraction” value is 39 nM.

Turning to B8, the “IC50, inhibition of ADAM9 activity on FRET substrate PEPDAB064; prodomain from inclusion bodies” value was 29 nM.

Consider B9, for which the “IC50, inhibition of ADAM9 activity on FRET substrate PEPDAB064; prodomain from inclusion bodies” value is above 200 nM and the “IC50, inhibition … from soluble fraction” value is 13.8 nM.

Consider B10, for which the “IC50, inhibition of ADAM9 activity on FRET substrate PEPDAB064; prodomain from inclusion bodies” value was 181 nM.

As to B11, the “IC50, inhibition of ADAM9 activity on FRET substrate PEPDAB064; prodomain from inclusion bodies” value was found to be 46 nM.

For B12, the “IC50, inhibition of ADAM9 activity on FRET substrate PEPDAB064; prodomain from inclusion bodies” value came out at 60 nM.

Turning to B13, the “IC50, inhibition of ADAM9 activity on FRET substrate PEPDAB064; prodomain from inclusion bodies” value was determined as 185 nM.

As for B14, the “IC50, inhibition of ADAM9 activity on FRET substrate PEPDAB064; prodomain from inclusion bodies” value amounted to 16 nM.

As for B15, the “IC50, inhibition of ADAM9 activity on FRET substrate PEPDAB064; prodomain from inclusion bodies” value is 39.9 nM.

For another assay, the target named is T2, Human Meprin beta (human, UniProt Q16820 62-652, limits assumed).
T2 sequence (looked up): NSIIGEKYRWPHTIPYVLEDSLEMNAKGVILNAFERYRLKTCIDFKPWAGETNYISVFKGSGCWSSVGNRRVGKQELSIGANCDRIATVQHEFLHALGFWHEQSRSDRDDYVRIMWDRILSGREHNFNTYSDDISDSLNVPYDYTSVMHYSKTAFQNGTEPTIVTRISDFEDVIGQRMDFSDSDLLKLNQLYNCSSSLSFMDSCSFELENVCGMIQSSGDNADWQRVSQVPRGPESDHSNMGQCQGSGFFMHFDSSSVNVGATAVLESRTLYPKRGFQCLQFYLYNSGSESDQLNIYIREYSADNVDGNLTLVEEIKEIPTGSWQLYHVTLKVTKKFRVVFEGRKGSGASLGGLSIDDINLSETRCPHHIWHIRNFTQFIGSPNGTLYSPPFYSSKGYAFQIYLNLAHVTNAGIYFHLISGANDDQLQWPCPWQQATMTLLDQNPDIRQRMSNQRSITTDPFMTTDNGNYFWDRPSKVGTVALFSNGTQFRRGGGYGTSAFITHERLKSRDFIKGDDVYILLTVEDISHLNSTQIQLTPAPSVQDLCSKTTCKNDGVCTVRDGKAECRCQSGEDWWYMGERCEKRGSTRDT
The experiment in a line: cell-based or functional assay.
In the case of B1, the “IC50, inhibition of activated Meprin beta on fluorescent substrate PEPDAB022” value is 200 nM.

On to B7, for which the “IC50, inhibition of activated Meprin beta on fluorescent substrate PEPDAB022” value came to 7400 nM.

B16: the “IC50, inhibition of activated Meprin beta on fluorescent substrate PEPDAB022” value amounted to 2800 nM.

On to B17, for which the “IC50, inhibition of activated Meprin beta on fluorescent substrate PEPDAB022” value was found to be 3800 nM.

Regarding B18, the “IC50, inhibition of activated Meprin beta on fluorescent substrate PEPDAB022” value stood at 5700 nM.
